According to article PMC4742562, “Structure and Interactions of a Dimeric Variant of sHIP, a Novel Virulence Determinant of Streptococcus pyogenes” (Frontiers in Microbiology, 2016):

Assays:
[1] = target: T1, HRGsingle peptide (single heparin-binding motif of histidine-rich glycoprotein) (human); test: ITC; 0.5 mM HRGsingle peptide titrated into 0.05 mM sHIPwt or sHIPqp, 20 mM MES pH 5.5, 25°C; one independent binding site model; conditions: both partners purified
T1 construct: also called GHHPHG; source: synthetic peptide (Biosyntan GmbH, Berlin)

[2] = target: the molecule itself; test: AUC; sedimentation velocity, 20°C, 50000 rpm, 20 mM MES pH 5.5; c(S) distribution compared with theoretical sedimentation coefficients (HYDROPRO)

B1: quadruple mutant protein sHIP, sHIPqp (natural protein)
chain: SMKQDQLIVEKMEQTYEAFSPKLANLIEALDAFKEHYEEYATLRNFYSSDEWFRLANQPWDDIPSGVLSEDLLFDMIGDHNQLAADIADLAPIMAKHM
notes: protein sHIP, S. pyogenes, UniProt Q99XU0, residues Lys3-Met98 with Leu84, Leu88, Tyr95 mutated to alanine and Cys65 to serine; Dimer by AUC and in the crystal; For NMR the protein was double-labelled (15N, 13C), grown in minimal medium; also called sHIPqp mutant; sHIP mutant; source: E. coli Rosetta BL21 (DE3), purified (IMAC, His-tag removed with TEV protease, reverse phase chromatography); not …
- Kd [1]: 2.8 ± 0.3 µM
- stoichiometry N [2]: 2
